B1: Membrane protein (Human SARS coronavirus), P59596 (parent)
chain: MADNGTITVEELKQLLEQWNLVIGFLFLAWIMLLQFAYSNRNRFLYIIKLVFLWLLWPVTLACFVLAAVYRINWVTGGIAIAMACIVGLMWLSYFVASFRLFARTRSMWSFNPETNILLNVPLRGTIVTRPLMESELVIGAVIIRGHLRMAGHSLGRCDIKDLPKEITVATSRTLSYYKLGASQRVGTDSGFAAYNRYRIGNYKLNTDHAGSNDNIALLVQ

The variants in this experiment derive from B1. The settings on record: with ncap_sars N.
Take L218A;L219A: the “effect of a mutation on the interaction” value was “with no effect”.
